Test results: patent US20230250154A1 (CYTONICS, published 2023)

B1: Variant A2M, bait region SEQ ID NO 108 (other)
chain: SVSGKPQYMVLVPSLLHTETTEKGCVLLSYLNETVTVSASLESVRGNRSLFTDLEAENDVLHCVAFAVPKSSSNEEVMFLTVQVKGPTQEFKKRTTVMVKNEDSLVFVQTDKSIYKPGQTVKFRVVSMDENFHPLNELIPLVYIQDPKGNRIAQWQSFQLEGGLKQFSFPLSSEPFQGSYKVVVQKKSGGRTEHPFTVEEFVLPKFEVQVTVPKIITILEEEMNVSVCGLYTYGKPVPGHVTVSICRKYSDASDCHGEDSQAFCEKFSGQLNSHGCFYQQVKTKVFQLKRKEYEMKLHTEAQIQEEGTVVELTGRQSSEITRTITKLSFVKVDSHFRQGIPFFGQVRLVDGKGVPIPNKVIFIRGNEANYYSNATTDEHGLVQFSINTTNVMGTSLTVRVNYKDRSPCYGYQWVSEEHEEAHHTAYLVFSPSKSFVHLEPMSHELPCGHTQTVQAHYILNGGTLLGLKKLSFYYLIMAKGGIVRTGTHGLLVKQEDMKGHFSISIPVKSDIAPVARLLIYAVLPTGDVIGDSAKYDVENCLANKVDLSFSPSQSLPASHAHLRVTAAPQSVCALRAVDQSVLLMKPDAELSASSVYNLLPEKDLTGFPGPLNDQDDEDCINRHNVYINGITYTPVSSTNEKDMYSFLEDMGLKAFTNSKIRKPKMCPQLEQYEMHGPEGLRVGEAIPMSIPTSEDLVVQIPENFFGVKLRKYFPETWIWDLVVVNSAGVAEVGVTVPDTITEWKAGAFCLSEDAGLGISSTASLRAFQPFFVELTMPYSVIRGEAFTLKATVLNYLPKCIRVSVQLEASPAFLAVPVEKEQAPHCICANGRQTVSWAVTPKSLGNVNFTVSAEALESQELCGTEVPSVPEHGRKDTVIKPLLVEPEGLEKETTFNSLLCPSGGEVSEELSLKLPPNVVEESARASVSVLGDILGSAMQNTQNLLQMPYGCGEQNMVLFAPNIYVLDYLNETQQLTPEIKSKAIGYLNTGYQRQLNYKHYDGSYSTFGERYGRNQGNTWLTAFVLKTFAQARAYIFIDEAHITQALIWLSQRQKDNGCFRSSGSLLNNAIKGGVEDEVTLSAYITIALLEIPLTVTHPVVRNALFCLESAWKTAQEGDHGSHVYTKALLAYAFALAGNQDKRKEVLKSLNEEAVKKDNSVHWERPQKPKAPVGHFYEPQAPSAEVEMTSYVLLAYLTAQPAPTSEDLTSATNIVKWITKQQNAQGGFSSTQDTVVALHALSKYGAATFTRTGKAAQVTIQSSGTFSSKFQVDNNNRLLLQQVSLPELPGEYSMKVTGEGCVYLQTSLKYNILPEKEEFPFALGVQTLPQTCDEPKAHTSFQISLSVSYTGSRSASNMAIVDVKMVSGFIPLKPTVKMLERSNHVSRTEVSSNHVLIYLDKVSNQTLSLFFTVLQDVPVRDLKPAIVKVYDYYETDEFAIAEYNAPCSKDLGNADYKDDDDKGASHHHHHH
B2: Variant A2M, bait region SEQ ID NO 130 (other)
chain: SVSGKPQYMVLVPSLLHTETTEKGCVLLSYLNETVTVSASLESVRGNRSLFTDLEAENDVLHCVAFAVPKSSSNEEVMFLTVQVKGPTQEFKKRTTVMVKNEDSLVFVQTDKSIYKPGQTVKFRVVSMDENFHPLNELIPLVYIQDPKGNRIAQWQSFQLEGGLKQFSFPLSSEPFQGSYKVVVQKKSGGRTEHPFTVEEFVLPKFEVQVTVPKIITILEEEMNVSVCGLYTYGKPVPGHVTVSICRKYSDASDCHGEDSQAFCEKFSGQLNSHGCFYQQVKTKVFQLKRKEYEMKLHTEAQIQEEGTVVELTGRQSSEITRTITKLSFVKVDSHFRQGIPFFGQVRLVDGKGVPIPNKVIFIRGNEANYYSNATTDEHGLVQFSINTTNVMGTSLTVRVNYKDRSPCYGYQWVSEEHEEAHHTAYLVFSPSKSFVHLEPMSHELPCGHTQTVQAHYILNGGTLLGLKKLSFYYLIMAKGGIVRTGTHGLLVKQEDMKGHFSISIPVKSDIAPVARLLIYAVLPTGDVIGDSAKYDVENCLANKVDLSFSPSQSLPASHAHLRVTAAPQSVCALRAVDQSVLLMKPDAELSASSVYNLLPEKDLTGFPGPLNDQDDEDCINRHNVYINGITYTPVSSTNEKDMYSFLEDMGLKAFTNSKIRKPKMCPQLEQYEMHGPSEDLVVQIEGEGEGEGIPENFFGVEAIPMSIPTVEEPHTKLRKYFPETWIWDLVVVNSAGVAEVGVTVPDTITEWKAGAFCLSEDAGLGISSTASLRAFQPFFVELTMPYSVIRGEAFTLKATVLNYLPKCIRVSVQLEASPAFLAVPVEKEQAPHCICANGRQTVSWAVTPKSLGNVNFTVSAEALESQELCGTEVPSVPEHGRKDTVIKPLLVEPEGLEKETTFNSLLCPSGGEVSEELSLKLPPNVVEESARASVSVLGDILGSAMQNTQNLLQMPYGCGEQNMVLFAPNIYVLDYLNETQQLTPEIKSKAIGYLNTGYQRQLNYKHYDGSYSTFGERYGRNQGNTWLTAFVLKTFAQARAYIFIDEAHITQALIWLSQRQKDNGCFRSSGSLLNNAIKGGVEDEVTLSAYITIALLEIPLTVTHPVVRNALFCLESAWKTAQEGDHGSHVYTKALLAYAFALAGNQDKRKEVLKSLNEEAVKKDNSVHWERPQKPKAPVGHFYEPQAPSAEVEMTSYVLLAYLTAQPAPTSEDLTSATNIVKWITKQQNAQGGFSSTQDTVVALHALSKYGAATFTRTGKAAQVTIQSSGTFSSKFQVDNNNRLLLQQVSLPELPGEYSMKVTGEGCVYLQTSLKYNILPEKEEFPFALGVQTLPQTCDEPKAHTSFQISLSVSYTGSRSASNMAIVDVKMVSGFIPLKPTVKMLERSNHVSRTEVSSNHVLIYLDKVSNQTLSLFFTVLQDVPVRDLKPAIVKVYDYYETDEFAIAEYNAPCSKDLGNADYKDDDDKGASHHHHHH

Columns and labels:
Test in all cases: cell-based or functional assay
MMP9 = MMP9 (human, UniProt P14780 107-707, limits assumed)
Sequence of MMP9 (P14780 107-707 limits assumed): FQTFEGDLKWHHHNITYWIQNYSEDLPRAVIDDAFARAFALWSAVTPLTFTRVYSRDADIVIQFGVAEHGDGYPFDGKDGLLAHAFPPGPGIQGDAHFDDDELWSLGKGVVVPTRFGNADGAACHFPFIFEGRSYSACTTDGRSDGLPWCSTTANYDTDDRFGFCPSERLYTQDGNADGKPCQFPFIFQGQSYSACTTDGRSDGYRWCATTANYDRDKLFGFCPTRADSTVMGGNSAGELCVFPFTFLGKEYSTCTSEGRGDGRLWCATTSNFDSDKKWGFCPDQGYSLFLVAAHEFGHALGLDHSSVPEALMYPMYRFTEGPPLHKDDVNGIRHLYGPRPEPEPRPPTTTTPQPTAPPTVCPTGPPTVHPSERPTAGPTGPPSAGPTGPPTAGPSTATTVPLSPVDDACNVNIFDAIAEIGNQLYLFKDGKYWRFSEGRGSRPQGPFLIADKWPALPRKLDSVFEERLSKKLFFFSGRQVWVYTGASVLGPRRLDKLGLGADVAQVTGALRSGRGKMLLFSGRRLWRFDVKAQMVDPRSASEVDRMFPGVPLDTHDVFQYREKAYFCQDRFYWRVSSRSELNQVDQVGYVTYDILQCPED

ADAMTS4 = target: T1, ADAMTS4 (human, UniProt O75173 213-685, limits assumed)
T1 sequence (looked up): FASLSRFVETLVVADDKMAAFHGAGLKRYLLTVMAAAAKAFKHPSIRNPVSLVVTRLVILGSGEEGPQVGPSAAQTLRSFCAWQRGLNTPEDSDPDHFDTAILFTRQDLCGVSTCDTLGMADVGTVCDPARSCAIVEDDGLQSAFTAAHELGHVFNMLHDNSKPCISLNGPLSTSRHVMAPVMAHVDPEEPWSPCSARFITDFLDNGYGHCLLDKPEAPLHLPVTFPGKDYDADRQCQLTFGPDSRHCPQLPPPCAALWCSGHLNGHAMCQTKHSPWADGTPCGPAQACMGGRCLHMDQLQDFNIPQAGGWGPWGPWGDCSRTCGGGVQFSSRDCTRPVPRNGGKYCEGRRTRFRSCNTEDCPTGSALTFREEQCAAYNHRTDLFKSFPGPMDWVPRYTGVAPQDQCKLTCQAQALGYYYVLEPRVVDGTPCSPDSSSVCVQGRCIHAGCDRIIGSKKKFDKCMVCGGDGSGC

MMP2 = target: T2, MMP2 (human, UniProt P08253 110-660, limits assumed)
T2 sequence (looked up): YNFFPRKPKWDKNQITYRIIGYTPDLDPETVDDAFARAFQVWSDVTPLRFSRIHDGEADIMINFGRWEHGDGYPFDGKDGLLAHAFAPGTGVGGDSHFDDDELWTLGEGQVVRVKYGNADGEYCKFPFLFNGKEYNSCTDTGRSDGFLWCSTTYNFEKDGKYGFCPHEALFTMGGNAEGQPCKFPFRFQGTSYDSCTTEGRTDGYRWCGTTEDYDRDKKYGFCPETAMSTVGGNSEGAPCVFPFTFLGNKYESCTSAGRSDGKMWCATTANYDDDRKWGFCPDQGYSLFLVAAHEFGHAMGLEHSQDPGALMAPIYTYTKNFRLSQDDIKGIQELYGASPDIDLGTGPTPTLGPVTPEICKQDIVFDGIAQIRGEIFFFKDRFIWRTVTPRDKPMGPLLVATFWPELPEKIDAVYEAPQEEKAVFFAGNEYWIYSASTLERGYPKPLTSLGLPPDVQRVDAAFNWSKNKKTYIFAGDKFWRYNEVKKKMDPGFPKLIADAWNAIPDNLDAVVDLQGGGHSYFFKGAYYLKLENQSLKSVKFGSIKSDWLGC

MMP3 = MMP3 (human, UniProt P08254 100-477, limits assumed)
Sequence of MMP3 (P08254 100-477 limits assumed): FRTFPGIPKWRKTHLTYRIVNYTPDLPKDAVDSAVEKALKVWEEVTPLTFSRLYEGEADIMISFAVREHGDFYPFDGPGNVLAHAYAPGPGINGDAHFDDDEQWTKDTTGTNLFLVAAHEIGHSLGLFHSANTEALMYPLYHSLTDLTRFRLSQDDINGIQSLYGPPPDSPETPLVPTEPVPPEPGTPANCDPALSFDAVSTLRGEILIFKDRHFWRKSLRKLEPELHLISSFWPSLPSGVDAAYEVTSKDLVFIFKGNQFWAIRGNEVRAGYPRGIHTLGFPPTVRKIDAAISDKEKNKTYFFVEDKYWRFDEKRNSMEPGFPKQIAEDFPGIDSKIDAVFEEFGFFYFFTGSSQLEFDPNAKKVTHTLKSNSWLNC

MMP8 = MMP8 (human, UniProt P22894 101-467, limits assumed)
Sequence of MMP8 (P22894 101-467 limits assumed): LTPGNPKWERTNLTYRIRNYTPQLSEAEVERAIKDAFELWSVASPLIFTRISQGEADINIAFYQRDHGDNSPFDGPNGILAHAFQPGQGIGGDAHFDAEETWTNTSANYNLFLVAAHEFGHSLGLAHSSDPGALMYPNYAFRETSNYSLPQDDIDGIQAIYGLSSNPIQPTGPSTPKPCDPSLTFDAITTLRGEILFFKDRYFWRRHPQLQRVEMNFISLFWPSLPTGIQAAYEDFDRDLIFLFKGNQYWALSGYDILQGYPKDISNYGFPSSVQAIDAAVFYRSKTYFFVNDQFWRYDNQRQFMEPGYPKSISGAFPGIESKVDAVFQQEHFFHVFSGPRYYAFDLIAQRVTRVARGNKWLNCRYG

MMP13 = MMP13 (human, UniProt P45452 104-471, limits assumed)
MMP1 = target: T3, MMP1 (human, UniProt P03956 100-469, limits assumed)
T3 sequence (looked up): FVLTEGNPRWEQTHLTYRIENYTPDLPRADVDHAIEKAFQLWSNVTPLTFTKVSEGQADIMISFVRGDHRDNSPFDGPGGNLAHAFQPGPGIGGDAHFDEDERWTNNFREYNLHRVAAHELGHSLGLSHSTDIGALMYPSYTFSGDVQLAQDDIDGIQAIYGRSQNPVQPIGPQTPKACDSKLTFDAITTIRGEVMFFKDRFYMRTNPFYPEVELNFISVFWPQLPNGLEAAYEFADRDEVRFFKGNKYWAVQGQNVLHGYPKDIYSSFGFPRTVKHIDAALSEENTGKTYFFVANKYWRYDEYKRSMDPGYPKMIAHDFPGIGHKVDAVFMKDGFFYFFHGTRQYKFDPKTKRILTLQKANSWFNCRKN

ADAMTS5 = target: T4, ADAMTS5 (human, UniProt Q9UNA0 262-622, limits assumed)
T4 sequence (looked up): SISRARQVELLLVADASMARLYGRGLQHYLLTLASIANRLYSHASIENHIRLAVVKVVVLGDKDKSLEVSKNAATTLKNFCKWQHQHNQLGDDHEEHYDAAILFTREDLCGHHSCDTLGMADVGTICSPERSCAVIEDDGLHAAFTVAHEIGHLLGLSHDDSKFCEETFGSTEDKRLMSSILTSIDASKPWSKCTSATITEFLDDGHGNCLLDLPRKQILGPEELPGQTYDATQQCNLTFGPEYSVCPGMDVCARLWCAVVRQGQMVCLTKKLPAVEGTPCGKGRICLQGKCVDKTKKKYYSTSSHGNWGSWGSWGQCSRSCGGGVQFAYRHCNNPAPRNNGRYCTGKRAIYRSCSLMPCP

chymotrypsin = target: chymotrypsin
bovine trypsin = bovine trypsin (bovine, UniProt P00760 24-246)
Sequence of bovine trypsin (P00760 24-246): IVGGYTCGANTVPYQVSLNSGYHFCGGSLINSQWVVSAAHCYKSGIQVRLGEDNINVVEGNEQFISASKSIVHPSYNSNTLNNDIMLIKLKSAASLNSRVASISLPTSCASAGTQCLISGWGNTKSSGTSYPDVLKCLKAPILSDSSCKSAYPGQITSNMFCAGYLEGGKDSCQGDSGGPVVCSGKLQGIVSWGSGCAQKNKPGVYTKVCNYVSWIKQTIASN

Elastase = target: Elastase
MMP12 = MMP12 (human, UniProt P39900 106-470, limits assumed)
Sequence of MMP12 (P39900 106-470 limits assumed): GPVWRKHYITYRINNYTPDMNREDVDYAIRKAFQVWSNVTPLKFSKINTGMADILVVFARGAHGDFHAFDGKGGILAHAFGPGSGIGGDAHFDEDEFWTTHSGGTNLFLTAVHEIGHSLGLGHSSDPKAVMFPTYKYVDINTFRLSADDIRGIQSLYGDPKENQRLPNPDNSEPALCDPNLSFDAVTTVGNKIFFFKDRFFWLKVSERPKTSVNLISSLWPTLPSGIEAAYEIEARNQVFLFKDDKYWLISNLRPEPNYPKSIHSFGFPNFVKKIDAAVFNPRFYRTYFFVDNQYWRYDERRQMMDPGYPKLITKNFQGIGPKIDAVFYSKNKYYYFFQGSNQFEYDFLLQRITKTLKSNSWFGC

Cathepsin G = target: T5, Cathepsin G (UniProt P08311 21-244)
T5 sequence (looked up): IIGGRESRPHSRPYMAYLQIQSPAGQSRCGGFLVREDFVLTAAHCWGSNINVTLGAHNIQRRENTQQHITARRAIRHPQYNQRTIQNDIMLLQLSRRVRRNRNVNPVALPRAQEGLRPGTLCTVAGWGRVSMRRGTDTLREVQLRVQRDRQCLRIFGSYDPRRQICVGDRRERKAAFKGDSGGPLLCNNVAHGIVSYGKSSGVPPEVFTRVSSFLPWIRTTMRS

| Binder | Protease Inhibition (% of WT) (MMP9) | Protease Inhibition (% of WT) (ADAMTS4) | Protease Inhibition (% of WT) (MMP2) | Protease Inhibition (% of WT) (MMP3) | Protease Inhibition (% of WT) (MMP8) | Protease Inhibition (% of WT) (MMP13) | Protease Inhibition (% of WT) (MMP1) | Protease Inhibition (% of WT) (ADAMTS5) | Protease Inhibition (% of WT) (chymotrypsin) | Protease Inhibition (% of WT) (bovine trypsin) | Protease Inhibition (% of WT) (Elastase) | Protease Inhibition (% of WT) (MMP12) | Protease Inhibition (% of WT) (Cathepsin G) |
| --- | --- | --- | --- | --- | --- | --- | --- | --- | --- | --- | --- | --- | --- |
| B1 | 70 % of WT | 50 % of WT | 110 % of WT | 330 % of WT | 40 % of WT | 350 % of WT | 390 % of WT | 90 % of WT | 100 % of WT | 100 % of WT | 50 % of WT | – | – |
| B2 | 100 % of WT | 110 % of WT | 109 % of WT | – | 180 % of WT | 146 % of WT | 283 % of WT | 211 % of WT | 100 % of WT | 250 % of WT | 103 % of WT | 124 % of WT | 311 % of WT |
